Data published in patent US20190263882A1 (Scripps Research, published 2019).
Substitutions are numbered along the chain they refer to.

What was measured:
[1] = molecular target: T1, RSV F protein (UniProt P03420 26-524); experiment: plate binding assay, RSV F protein coated, anti-human IgG (Fc specific) detection, fluorescence read at 25 min
[2] = molecular target: T2, relaxin receptor (LGR7); experiment: cell-based or functional assay
T2 sequence (Q9HBX9 whole entry, species assumed, looked up): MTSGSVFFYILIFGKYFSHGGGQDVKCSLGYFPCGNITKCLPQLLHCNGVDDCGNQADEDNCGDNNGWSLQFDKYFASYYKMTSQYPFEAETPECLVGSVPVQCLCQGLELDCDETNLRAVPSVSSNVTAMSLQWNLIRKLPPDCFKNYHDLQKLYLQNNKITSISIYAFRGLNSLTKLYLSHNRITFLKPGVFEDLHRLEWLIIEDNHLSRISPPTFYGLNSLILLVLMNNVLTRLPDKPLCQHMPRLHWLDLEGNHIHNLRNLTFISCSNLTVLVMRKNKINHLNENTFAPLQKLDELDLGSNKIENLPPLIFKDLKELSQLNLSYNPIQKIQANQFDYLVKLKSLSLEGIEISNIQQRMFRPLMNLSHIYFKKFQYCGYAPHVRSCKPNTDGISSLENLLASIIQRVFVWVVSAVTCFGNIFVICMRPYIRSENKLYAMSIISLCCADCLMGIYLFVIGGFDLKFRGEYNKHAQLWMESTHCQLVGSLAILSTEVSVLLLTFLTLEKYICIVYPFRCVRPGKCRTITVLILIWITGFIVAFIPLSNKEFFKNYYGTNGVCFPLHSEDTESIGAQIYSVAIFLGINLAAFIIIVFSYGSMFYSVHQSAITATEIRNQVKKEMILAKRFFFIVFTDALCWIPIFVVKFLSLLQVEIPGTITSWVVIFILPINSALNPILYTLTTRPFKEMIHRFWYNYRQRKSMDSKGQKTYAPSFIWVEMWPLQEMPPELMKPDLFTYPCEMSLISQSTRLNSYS

[3] = molecular target: LGR8; experiment: cell-based or functional assay
[4] = molecular target: T1, RSV F protein; experiment: plate binding assay, RSV F protein coated, anti-human IgG (Fc specific) detection, fluorescence read at 50 min
[5] = molecular target: T2, relaxin receptor (LGR7); experiment: cell-based or functional assay; remark: listed apart in the source

LGR8, sequence (Q8WXD0 whole entry): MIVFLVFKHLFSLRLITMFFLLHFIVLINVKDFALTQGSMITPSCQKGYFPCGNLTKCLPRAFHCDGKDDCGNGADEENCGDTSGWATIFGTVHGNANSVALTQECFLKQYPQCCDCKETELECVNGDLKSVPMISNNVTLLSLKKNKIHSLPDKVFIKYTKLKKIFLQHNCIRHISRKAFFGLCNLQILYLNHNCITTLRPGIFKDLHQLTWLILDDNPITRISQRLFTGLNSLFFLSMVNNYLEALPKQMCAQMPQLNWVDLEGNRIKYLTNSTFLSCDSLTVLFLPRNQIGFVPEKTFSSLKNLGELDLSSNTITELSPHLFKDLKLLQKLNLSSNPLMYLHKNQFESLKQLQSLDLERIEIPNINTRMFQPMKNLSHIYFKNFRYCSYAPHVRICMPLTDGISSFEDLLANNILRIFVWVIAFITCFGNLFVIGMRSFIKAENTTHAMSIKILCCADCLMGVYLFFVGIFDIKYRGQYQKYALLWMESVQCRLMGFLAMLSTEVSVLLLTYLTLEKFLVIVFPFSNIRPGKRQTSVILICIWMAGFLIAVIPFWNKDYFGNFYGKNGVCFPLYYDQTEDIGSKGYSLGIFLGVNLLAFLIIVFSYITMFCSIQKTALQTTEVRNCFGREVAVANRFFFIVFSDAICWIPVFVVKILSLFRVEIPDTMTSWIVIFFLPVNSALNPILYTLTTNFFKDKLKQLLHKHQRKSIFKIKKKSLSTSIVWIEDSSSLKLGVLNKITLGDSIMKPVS
T1 sequence (P03420 26-524): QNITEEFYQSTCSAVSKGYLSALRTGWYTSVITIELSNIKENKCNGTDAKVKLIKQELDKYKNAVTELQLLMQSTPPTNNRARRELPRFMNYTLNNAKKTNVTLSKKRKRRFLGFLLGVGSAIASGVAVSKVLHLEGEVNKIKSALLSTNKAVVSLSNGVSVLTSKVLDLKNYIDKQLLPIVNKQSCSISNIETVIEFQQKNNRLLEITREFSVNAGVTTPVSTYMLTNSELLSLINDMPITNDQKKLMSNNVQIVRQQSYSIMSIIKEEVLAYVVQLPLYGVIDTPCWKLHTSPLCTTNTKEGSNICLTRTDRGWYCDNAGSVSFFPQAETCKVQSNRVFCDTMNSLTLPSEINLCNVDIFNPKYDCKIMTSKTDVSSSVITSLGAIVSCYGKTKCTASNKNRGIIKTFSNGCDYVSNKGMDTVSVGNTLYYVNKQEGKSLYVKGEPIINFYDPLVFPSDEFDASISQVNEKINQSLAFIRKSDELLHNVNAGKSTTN

B1: SC3: Palivizumab (null, 16GS)-relaxin2(9GS) and Palivizumab L (antibody, human IgG1, kappa)
heavy: DSWMEEVIKLCGRELVRAQIAICGMSTWSGGGGSGGGGQLYSALANKCCHVGCTKRSLARFCGGGGSGGGGSGGGGSGQVTLRESGPALVKPTQTLTLTCTFSGFSLSTSGMSVGWIRQPPGKALEWLADIWWDDKKDYNPSLKSRLTISKDTSKNQVVLKVTNMDPADTATYYCARSMITNWYFDVWGAGTTVTVSSASTKGPSVFPLAPSSKSTSGGTAALGCLVKDYFPEPVTVSWNSGALTSGVHTFPAVLQSSGLYSLSSVVTVPSSSLGTQTYICNVNHKPSNTKVDKKVEPKSCDKTHTCPPCPAPPVAGPSVFLFPPKPKDTLMISRTPEVTCVVVDVSHEDPEVKFNWYVDGVEVHNAKTKPREEQYNSTYRVVSVLTVLHQDWLNGKEYKCKVSNKGLPSSIEKTISKAKGQPREPQVYTLPPSRDELTKNQVSLTCLVKGFYPSDIAVEWESNGQPENNYKTTPPVLDSDGSFFLYSKLTVDKSRWQQGNVFSCSVMHEALHNHYTQKSLSLSPGK
light: DIQMTQSPSTLSASVGDRVTITCKCQLSVGYMHWYQQKPGKAPKLLIYDTSKLASGVPSRFSGSGSGTEFTLTISSLQPDDFATYYCFQGSGYPFTFGGGTKLEIKRTVAAPSVFIFPPSDEQLKSGTASVVCLLNNFYPREAKVQWKVDNALQSGNSQESVTEQDSKDSTYSLSSTLTLSKADYEKHKVYACEVTHQGLSSPVTKSFNRGEC
- Kd [1]: 0.425 nM
- LGR7 [2]: 0.205 nM
- LGR8 [3]: 177 nM
- Kd [4]: 0.249 nM

B2: SCX2: palivizumab(NH2, 16GS)-relaxin2(9GS) and palivizumab L (antibody, human IgG1, kappa)
heavy: B1 heavy with W183G
light: B1 light
- Kd [1]: 14.4 nM
- EC50, CRE-luciferase reporter assay [5]: 61.2 pM
- LGR7 [2]: 0.115 nM
- LGR8 [3]: 327 nM
- Kd [4]: 9.03 nM

B3: SCX1: palivizumab(NH1, 16GS)-relaxin2(9GS) and palivizumab L (antibody, human IgG1, kappa)
heavy: B1 heavy with W183A
light: B1 light
- Kd [1]: 112 nM
- EC50, CRE-luciferase reporter assay [5]: 69.1 pM
- LGR7 [2]: 0.129 nM
- LGR8 [3]: 939 nM
- Kd [4]: 83.1 nM

B4: SCX3: palivizumab(NH3, 16GS)-relaxin2(9GS) and palivizumab L (antibody, human IgG1, kappa)
heavy: B1 heavy with N182F, W183G, Y184G
light: B1 light
- Kd [1]: 163 nM
- EC50, CRE-luciferase reporter assay [5]: 129 pM
- LGR7 [2]: 0.115 nM
- LGR8 [3]: 16300 nM
- Kd [4]: 107 nM
